Our source for the Labeled cells detected (%) values is patent US20160136236A1.

Assay [1] concerns the target wild type (WT) human low density lipoprotein receptor (LDLR) (human) (UniProt P01130). The experiment in a line: flow cytometry competition; 0.5 ug/mL LDL-BODIPY with 500 ug/mL unlabeled LDL on HEK293 cells transfected with LDLR mRNA. Background: In flow cytometry, cells or beads pass a laser one at a time.
The target is the same in assay [2]. The experiment in a line: flow cytometry competition; 0.5 ug/mL LDL-BODIPY with 0.01 ug/mL unlabeled LDL on HEK293 cells transfected with LDLR mRNA.
The target is the same in assay [3]. The experiment in a line: flow cytometry competition; 0.5 ug/mL LDL-BODIPY with 0.1 ug/mL unlabeled LDL on HEK293 cells transfected with LDLR mRNA.
Assay [4] shares this target. The experiment in a line: flow cytometry competition; 0.5 ug/mL LDL-BODIPY with 10 ug/mL unlabeled LDL on HEK293 cells transfected with LDLR mRNA.
The target is the same in assay [5]. The experiment in a line: flow cytometry competition; 0.5 ug/mL LDL-BODIPY with 1 ug/mL unlabeled LDL on HEK293 cells transfected with LDLR mRNA.
Assay [6] shares this target. The experiment in a line: flow cytometry competition; 0.5 ug/mL LDL-BODIPY with 0.5 ug/mL unlabeled LDL on HEK293 cells transfected with LDLR mRNA.
Assay [7] has the same target. The experiment in a line: flow cytometry competition; 0.5 ug/mL LDL-BODIPY with 100 ug/mL unlabeled LDL on HEK293 cells transfected with LDLR mRNA.
The target is the same in assay [8]. The experiment in a line: flow cytometry competition; 0.5 ug/mL LDL-BODIPY with 0 ug/mL unlabeled LDL on HEK293 cells transfected with LDLR mRNA.

wild type (WT) human low density lipoprotein receptor (LDLR) (human), sequence (P01130 22-860 limits assumed): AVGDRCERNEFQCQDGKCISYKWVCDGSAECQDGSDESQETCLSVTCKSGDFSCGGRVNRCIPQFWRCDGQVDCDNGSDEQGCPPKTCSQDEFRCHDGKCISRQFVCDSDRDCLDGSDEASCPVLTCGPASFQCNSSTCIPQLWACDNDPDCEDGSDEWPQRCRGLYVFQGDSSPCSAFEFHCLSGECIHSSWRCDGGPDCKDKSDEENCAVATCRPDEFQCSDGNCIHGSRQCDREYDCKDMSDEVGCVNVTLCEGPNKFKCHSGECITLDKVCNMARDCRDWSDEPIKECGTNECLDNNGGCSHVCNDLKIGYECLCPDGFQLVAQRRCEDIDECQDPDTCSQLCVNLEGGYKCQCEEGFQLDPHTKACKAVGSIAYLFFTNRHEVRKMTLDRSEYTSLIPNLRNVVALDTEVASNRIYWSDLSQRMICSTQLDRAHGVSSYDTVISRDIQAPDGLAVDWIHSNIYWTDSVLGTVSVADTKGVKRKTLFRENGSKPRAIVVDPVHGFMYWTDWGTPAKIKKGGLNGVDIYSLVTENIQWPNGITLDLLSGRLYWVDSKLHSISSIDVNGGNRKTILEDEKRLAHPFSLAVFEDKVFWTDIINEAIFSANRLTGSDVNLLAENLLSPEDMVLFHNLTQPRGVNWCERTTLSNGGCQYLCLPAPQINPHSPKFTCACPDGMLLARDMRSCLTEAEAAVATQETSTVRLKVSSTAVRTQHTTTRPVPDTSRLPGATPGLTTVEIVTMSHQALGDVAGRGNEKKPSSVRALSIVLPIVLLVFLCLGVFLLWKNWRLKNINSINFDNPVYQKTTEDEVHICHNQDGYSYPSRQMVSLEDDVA

In the case of “unlabeled LDL (low density lipoprotein), P04114 28-4563”, the Labeled cells detected (%) in assay [1] stood at 0.9%; in assay [2], 97.7%; in assay [3], 59%; in assay [4] it was 48.4%; in assay [5], 76%; in assay [6], 64.1%. For the same substance, the figures for the Labeled cells detected (%) in assay [7] and in assay [8] were 3.2% and 100%, respectively.
